In publication PMC4738263 (Scientific Reports, 2016):

B1: His-tag-attached wild-type Hydrogenobacter thermophilus cytochrome c552, holo protein [modified: heme c attached (holo protein); heme c attached (holo protein)] [Hydrogenobacter thermophilus] / itself (parent)
chain: NEQLAKQKGCMACHDLKAKKVGPAYADVAKKYAGRKDAVDYLAGKIKKGGSGVWGSVPMPPQNVTDAEAKQLAQWILSIK

Variants of: B1
Assay: Ni affinity chromatography (peak areas)
Settings: with itself, protein obtained from E. coli cells, read off a plot

chain 1 I76V
screen value (parent: 27): 19% | screen value (parent: 68): 75% | screen value: 5.5%

chain 1 A5F M11V Y32F Y41E I76V
screen value (parent: 27): 1.8% | screen value (parent: 68): 92% | screen value: 6.2%

chain 1 Y32F Y41E
screen value (parent: 27): 11% | screen value (parent: 68): 76% | screen value: 13%

chain 1 A5F M11V
screen value (parent: 27): 14% | screen value (parent: 68): 83% | screen value: 3%
